From patent US20160002325A1 (VACCINEX, published 2016)
Numbering of substitutions follows the chain as printed.

Assays:
human CXCL13 [1] = target: T1, human CXCL13 (human, UniProt O43927 23-109); assay: SPR (Biacore), recombinant human CXCL13; printed as Affinity (Biacore), nM
T1 construct: Recombinant protein bought from Peprotech (#300-47); In some assays native human CXCL13 from supernatant of IFN-gamma-stimulated THP-1 cells was used; this is said in the assay field; also called recombinant human CXCL13; rhuCXCL13
T1 sequence: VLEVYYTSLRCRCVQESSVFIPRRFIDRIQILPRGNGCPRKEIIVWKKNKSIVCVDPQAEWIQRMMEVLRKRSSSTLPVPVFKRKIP

mouse CXCL13 [2] = target: T2, mouse CXCL13 (mouse, UniProt O55038 22-109); assay: SPR (Biacore), recombinant mouse CXCL13; printed as Affinity (Biacore), nM
T2 construct: Recombinant protein bought from Peprotech (#250-24); In some assays native mouse CXCL13 from organ extracts of TNF-alpha transgenic mice was used; this is said in the assay field; also called recombinant mouse CXCL13; rmuCXCL13
T2 sequence: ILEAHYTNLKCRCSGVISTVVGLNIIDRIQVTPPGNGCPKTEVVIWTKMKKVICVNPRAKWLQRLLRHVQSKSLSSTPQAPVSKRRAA

human CXCL13 [3] = target: T1, human CXCL13; assay: SPR (BIACORE), recombinant human CXCL13, methods similar to Example 1; printed as Affinity, nM
Experimental: (§1) Chemokines were immobilized on a C1 chip in Acetate buffer (pH=5) with human CXCL13 at 1 μg/ml, mouse CXCL13 at 0.3 μg/ml, and negative control SDF-1α at 0.5 μg/ml. 3D2 and 3C9 were diluted in HBS-EP buffer by two-fold from 100 nM to 0.78 nM and from 38 nM to […].

mouse CXCL13 [4] = target: T2, mouse CXCL13; assay: SPR (BIACORE), recombinant mouse CXCL13, methods similar to Example 1; printed as Affinity, nM
Experimental: as §1

mouse CXCL13 [5] = target: T2, mouse CXCL13; assay: SPR (BIACORE), recombinant chemokine immobilized on C1 chip, antibody in solution; printed as Affinity, nM
Experimental: as §1

human CXCL13 [6] = target: T1, human CXCL13; assay: as above
Experimental: as §1

human CXCL13 [7] = target: T1, human CXCL13; assay: Specificity ELISA on plate-coated recombinant human CXCL13, OD 450/570, four-parameter sigmoidal fit
Experimental: (§2) Hybridoma clones were screened by ELISA for binding to human and mouse CXCL13 protein. ELISA plates were coated with about 100 nM of human (Peprotech: #300-47) or mouse (Peprotech: #250-24) CXCL13 protein overnight at room temperature (RT). […] The plates were washed and developed with tetramethylbenzidine (TMB) substrate reagents A and B (BD Biosciences: #555214) mixed at equal volumes for 15 minutes in the dark and read at 450/570 wavelengths. Two positive hybridoma clones, labelled “3D2” and “3C9”, both mouse IgG1 antibodies, were selected for further characterization.
(§3) Specificity of the hybridoma-produced mouse anti-human antibodies, 3D2 and 3C9, was assessed by ELISA (as described above) on a panel that included recombinant chemokines (Peprotech: mouse and human CXCL13, human IL-8/CXCL8 (#200-08), human IP-10/CXCL10 (#200-10), human MIG/CXCL9 (#300-26), human SDF-1alpha/CXCL12 (#300-28A) and cynomolgus monkey CXCL13) as well as several non-specific control antigens (recombinant human C35, streptavidin (Thermo: #21122), bovine serum albumin (BSA) (SeraCore: #AP-4510-01)), human serum albumin (HAS) (Sigma: #A8763), insulin (Gibco: #12585-014), and hemoglobin (Sigma: #H7379).

mouse CXCL13 [8] = target: T2, mouse CXCL13; assay: Specificity ELISA on plate-coated recombinant mouse CXCL13, OD 450/570, four-parameter sigmoidal fit
Experimental: as §2, §3

human CXCL13 [9] = target: T1, human CXCL13; assay: Specificity ELISA on recombinant human CXCL13 coated at 100 nM, OD 450/570, four-parameter sigmoidal fit
Experimental: (§4) Each data point represents mean of triplicate measurements. EC50 values were calculated from four-parameter sigmoidal curve fit (R² for the curves that produced EC50 values were 0.99).

cynomolgus monkey CXCL13 [10] = target: T3, cynomolgus monkey CXCL13 (cynomolgus monkey, UniProt O43927 23-104 (human entry), limits assumed); assay: Specificity ELISA on plate-coated recombinant cynomolgus monkey CXCL13, OD 450/570, four-parameter sigmoidal fit
T3 construct: Recombinant; also called recombinant cynomolgus monkey CXCL13
T3 chain: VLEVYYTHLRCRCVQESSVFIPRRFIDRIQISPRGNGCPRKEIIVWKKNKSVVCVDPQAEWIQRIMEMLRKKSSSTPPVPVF
Experimental: as §2, §3

cynomolgus monkey CXCL13 [11] = target: T3, cynomolgus monkey CXCL13; assay: Specificity ELISA on recombinant cynomolgus monkey CXCL13 coated at 100 nM, OD 450/570, four-parameter sigmoidal fit
Experimental: as §4

mouse CXCL13 [12] = target: T2, mouse CXCL13; assay: Capture Epitope Competition ELISA: native mouse CXCL13 captured with MAb 470; unlabeled competitor inhibits binding of 3.3 nM biotin-3D2; four-parameter fit
Experimental: For mouse ELISA, mouse CXCL13 (1:40 dilution of TNF-Tg organ extract) was captured with 33 nM MAb 470 and detected with 3.3 nM biotin-3D2. Each data point represents an average of duplicate measurements from one of at least three independent experiments. […] Curves shown in FIGS. 17A-B were fitted using four-parameter sigmoidal curve fit (R²=0.99).

human CXCL13 [13] = target: T1, human CXCL13; assay: Capture Epitope Competition ELISA: recombinant human CXCL13 captured with MAb 801; unlabeled 3D2 inhibits binding of biotin-3C9; percent maximal response, four-parameter fit
Experimental: (§5) Capture Epitope Competition ELISA was used to assess 3D2 binding to native human and mouse CXCL13. In this assay, native human CXCL13 was obtained from supernatants collected from human IFN-gamma-stimulated THP-1 cells. […] The plate was then incubated with biotinylated 3C9 in the presence of various amounts of unlabeled 3D2. […] As evident from FIG. 3A, 3D2 strongly bound to both native and recombinant human CXCL13 producing statistically similar EC50 values.

mouse CXCL13 [14] = target: T2, mouse CXCL13; assay: Capture Epitope Competition ELISA: recombinant mouse CXCL13 captured with MAb 470; unlabeled 3D2 inhibits binding of biotin-3D2; percent maximal response, four-parameter fit
Experimental: (§6) Mouse CXCL13-rich organ extracts from TNF-alpha transgenic mice were used as sources of native mouse CXCL13. Mouse CXCL13 (1:40 dilution of TNF-Tg organ extract or 0.5 nM rmuCXCL13) was captured with 33 nM MAb 470 and detected with 3.3 nM biotin-3D2. The chemokine from the extracts (and recombinant mouse CXCL13 which was used as a control) was captured on the ELISA plate by MAb 470. The plate was then incubated with biotinylated 3D2 in the presence of various amounts of unlabeled 3D2.

human CXCL13 [15] = target: T1, human CXCL13; assay: Capture Epitope Competition ELISA: native human CXCL13 (THP-1 supernatant) captured with MAb 801; unlabeled 3D2 inhibits binding of biotin-3C9; percent maximal response, four-parameter fit
Experimental: as §5

mouse CXCL13 [16] = target: T2, mouse CXCL13; assay: Capture Epitope Competition ELISA: native mouse CXCL13 (TNF-Tg organ extract) captured with MAb 470; unlabeled 3D2 inhibits binding of biotin-3D2; percent maximal response, four-parameter fit
Experimental: as §6

human CXCL13 [17] = target: T1, human CXCL13; assay: Specificity ELISA on recombinant human CXCL13 coated at 100 nM, OD 450/570, four-parameter sigmoidal fit; remark: listed apart in the source
cynomolgus monkey CXCL13 [18] = target: T3, cynomolgus monkey CXCL13; assay: Specificity ELISA on recombinant cynomolgus monkey CXCL13 coated at 100 nM, OD 450/570, four-parameter sigmoidal fit
[19] = target: T4, human CXCL13 15-mer peptide YTSLRCRCVQESSVF (human); assay: ProArray Ultra peptide microarray of 15-mer human CXCL13 peptides, fluorescent secondary antibody
T4 peptide: YTSLRCRCVQESSVF
Experimental: In this project, the determination of peptide-antibody binding was performed by incubation of serum samples with a ProArray Ultra™ peptide microarray. This peptide array was generated as 15-mer peptides overlapping by 10 amino acids from the human CXCL13 primary sequence. The CXCL13 array contained sixteen unique peptides. […] After several washing steps the ProArray Ultra™ arrays were dried and scanned using a high-resolution fluorescence microarray scanning system.

mouse CXCL13 [20] = target: T2, mouse CXCL13; assay: Specificity ELISA on recombinant mouse CXCL13 coated at 100 nM, OD 450/570, four-parameter sigmoidal fit
Experimental: For specificity ELISA, recombinant human, cynomolgus monkey, and mouse CXCL13 were each coated at 100 nM. […] The data points for each chemokine represents the mean of triplicate measurements. EC50 values were calculated from four-parameter sigmoidal curve fit (R² for the curves that produced EC50 values were 0.99).

mouse CXCL13 [21] = target: T2, mouse CXCL13; assay: as above; remark: listed apart in the source
Experimental: as §4

B1: 3D2 (antibody, mouse IgG1, V domains shown)
VH: EVQLQESGPGILQPSQTLNLTCSFSGFSLSTFGMGVGWIRQPSGKGLEWLAHIWWDDDRRYNPALKSRLTISKETSKNQVFLKIANVDTADTATYYCTRIAGYYGSRDWFAYWGQGTTVTVSS
VL: DIVLTQSPASLAVSLGQRATISCRASESVDNSGISFMHWYQQKPGQPPKLLIFRASDLESGIPARFSGSGSRTDFTLTVNPVETDDVATYFCQQSNKDPWTFGGGTKLEIK
notes: Hybridoma-produced mouse IgG1; also called mouse anti-human CXCL13 antibody 3D2; H1609/L0293
B1 showed a Kd (human CXCL13 [1]) of 13 nM, a Kd (mouse CXCL13 [2]) of 159 nM and a Kd (human CXCL13 [3]) of 13 nM. The Kd (mouse CXCL13 [4]) was 159 nM, the Kd (mouse CXCL13 [5]) was 159 nM and the Kd (human CXCL13 [6]) was 12.9 nM. For the same binder, the EC50 (human CXCL13 [7]) was 1.1 nM, the EC50 (mouse CXCL13 [8]) was 0.98 nM and the EC50 (human CXCL13 [9]) was 0.2 nM. It also gave an EC50 (cynomolgus monkey CXCL13 [10]) of 0.8 nM, an EC50 (cynomolgus monkey CXCL13 [11]) of 8.9 nM and an EC50 (mouse CXCL13 [12]) of 11.2 nM. The EC50 (human CXCL13 [13]) was 0.46 nM, the EC50 (mouse CXCL13 [14]) was 12.5 nM and the EC50 (human CXCL13 [15]) was 0.13 nM. For the same binder, the EC50 (mouse CXCL13 [16]) was 11.2 nM.

B2: MAb 1476 (antibody, V domains shown)
VH: B1 VH
VL: B1 VL
notes: Chimeric IgG1: 3D2 variable domains (H1609/L0293) on human gamma 1 heavy chain constant and human kappa constant; also called chimeric 3D2
In the case of B2, the Kd (human CXCL13 [1]) is reported as 11.4 nM, the EC50 (human CXCL13 [17]) is reported as 0.07 nM and the EC50 (cynomolgus monkey CXCL13 [18]) is reported as 0.51 nM.

B3: MAb 5261 (antibody, V domains shown)
VH: QVQLQESGPGLVKPSETLSLTCTVSGFSLSTFGMGVGWIRQPPGKGLEWIAHIWWDDDRRYNPALKSRVTISKDTSKNQFSLKLSSVTAADTAVYYCARIAGYYGSRDWFAYWGQGTTVTVSS
VL: DIQMTQSPSSLSASVGDRVTITCRASESVDNMGISFMHWYQQKPGKAPKLLIFRASDLESGVPSRFSGSGSGTDFTLTISSLQPEDFATYYCQQSNKDPWTFGQGTKLEIK
notes: Humanized
For B3, the Kd (human CXCL13 [1]) was 5.1 nM, the Kd (mouse CXCL13 [2]) was 8.1 nM and the binding result [19] was “binds”. For the same binder, the Kd (human CXCL13 [3]) was 5.1 nM, the Kd (mouse CXCL13 [4]) was 8.1 nM and the EC50 (human CXCL13 [17]) was 0.03 nM. For the same binder, the EC50 (mouse CXCL13 [20]) was 0.09 nM, the EC50 (cynomolgus monkey CXCL13 [18]) was 0.04 nM and the EC50 (mouse CXCL13 [12]) was 6 nM.

B4: MAb 5080 (antibody, human IgG1, V domains shown)
VH: B3 VH
VL: B3 VL with M32S, R65G, G72R
notes: also called H2177/L5055
B4 showed a Kd (human CXCL13 [1]) of 14.5 nM, a Kd (mouse CXCL13 [2]) of 59.2 nM and an EC50 (human CXCL13 [17]) of 0.03 nM. The EC50 (mouse CXCL13 [20]) was 2.1 nM, the EC50 (cynomolgus monkey CXCL13 [18]) was 0.06 nM and the EC50 (mouse CXCL13 [12]) was 24.3 nM.

B5: MAb 5378 (antibody, V domains shown)
VH: B3 VH
VL: B3 VL
notes: also called H5188/L5153
Binder B5 has a Kd (human CXCL13 [3]) of 4.5 nM, a Kd (mouse CXCL13 [4]) of 4.2 nM and an EC50 (human CXCL13 [9]) of 0.2 nM. For the same binder, the EC50 (mouse CXCL13 [21]) was 3.4 nM and the EC50 (cynomolgus monkey CXCL13 [11]) was 0.3 nM.
